Test results taken from patent CN113150157A.

Experiments:
[1] = target: 人成纤维细胞生长因子2(FGF2) (human) (UniProt P09038); assay: sandwich chemiluminescence immunoassay, AntiVEGF_C capture and AntiVEGF_N-HRP detection, FGF2 at 20μg/ml (specificity test)
表皮生长因子(EGF) [2] = target: 表皮生长因子(EGF) (UniProt P01133); assay: sandwich chemiluminescence immunoassay, AntiVEGF_C capture and AntiVEGF_N-HRP detection, EGF at 30ng/ml (specificity test)
[3] = target: 人成纤维细胞生长因子2(FGF2) (human) (UniProt P09038); assay: sandwich chemiluminescence immunoassay, AntiVEGF_C capture and AntiVEGF_N-HRP detection, FGF2 at 20μg/ml; apparent VEGF concentration
表皮生长因子(EGF) [4] = target: 表皮生长因子(EGF) (UniProt P01133); assay: sandwich chemiluminescence immunoassay, AntiVEGF_C capture and AntiVEGF_N-HRP detection, EGF at 30ng/ml; apparent VEGF concentration

UniProt P09038, sequence (P09038 143-288 limits assumed): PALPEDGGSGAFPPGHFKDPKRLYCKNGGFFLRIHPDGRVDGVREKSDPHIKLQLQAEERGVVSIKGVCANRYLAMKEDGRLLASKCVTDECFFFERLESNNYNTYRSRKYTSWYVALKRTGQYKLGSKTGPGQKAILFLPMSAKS
UniProt P01133, sequence (P01133 971-1023 limits assumed): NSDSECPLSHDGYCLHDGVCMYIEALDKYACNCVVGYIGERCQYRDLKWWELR

B1: 单克隆抗体AntiVEGF_C (antibody, V domains shown)
VH: EVQLVESGGGLVQPGGSRKLSCAASGFTFSSFGMHWVRQAPEKGLEWVAFINSDSSAFYYADTVQDRFTISRDNPKNTLFLQMTSLRSEDTAMYYCARAGNHYYGGAYWGQGTLVTVSA
VL: QIVLSQSPAILSASPGEKVTMTCRASSSVSYMHWYQQRPGSSPKPWIYDTSNLASGVPVRFSGSGSGTSYSLTISRVEVEDAATYYCQQWSRHPPITFGSGTKLEIK
- 发光值 [1]: 14900 RLU
- 发光值 (表皮生长因子(EGF) [2]): 8770 RLU
- 浓度值 (检测表观值) [3]: 11.3 pg/mL
- 浓度值 (检测表观值) (表皮生长因子(EGF) [4]): 6.57 pg/mL
